Measured values published in PMC12394453.
Values joined by “and” are separate entries in the source; they are usually repeats but may differ in a detail not shown here. Equal values may be shown once.

Target: HeV-G (wild-type Hendra virus attachment glycoprotein G, soluble recombinant) (Hendra virus) (UniProt O89343)
Experiment: SEC; oligomeric states of the purified G protein (Supplementary Fig. 7)

Chain of HeV-G (wild-type Hendra virus attachment glycoprotein G, soluble recombinant) (O89343 71-604 limits assumed): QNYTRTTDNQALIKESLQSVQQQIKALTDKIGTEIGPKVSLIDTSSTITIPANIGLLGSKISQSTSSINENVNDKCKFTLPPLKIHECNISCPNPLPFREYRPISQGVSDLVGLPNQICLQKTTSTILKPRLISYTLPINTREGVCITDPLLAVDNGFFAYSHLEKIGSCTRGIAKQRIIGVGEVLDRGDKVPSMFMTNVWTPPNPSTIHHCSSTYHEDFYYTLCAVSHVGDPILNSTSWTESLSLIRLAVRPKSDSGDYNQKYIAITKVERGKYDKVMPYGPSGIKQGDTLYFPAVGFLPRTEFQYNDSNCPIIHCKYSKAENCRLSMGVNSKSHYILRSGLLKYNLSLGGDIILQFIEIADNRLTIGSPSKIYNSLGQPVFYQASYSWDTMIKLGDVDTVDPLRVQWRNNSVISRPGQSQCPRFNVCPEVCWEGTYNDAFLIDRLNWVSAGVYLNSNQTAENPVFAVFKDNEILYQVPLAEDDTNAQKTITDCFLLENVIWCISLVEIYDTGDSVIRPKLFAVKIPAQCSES

## HeV-G (wild-type Hendra virus attachment glycoprotein G, soluble recombinant) (from UniProt O89343 1-604) (natural protein)
  stoichiometry N: 4 and 2
